Consider seven molecules from US12723100 (CSPC MEGALITH BIOPHARMACEUTICAL, dated 2026).

Experiment [1] has as its target T1, full-length human Nectin-4 on cells (human, UniProt Q96NY8 32-510).
T1 sequence: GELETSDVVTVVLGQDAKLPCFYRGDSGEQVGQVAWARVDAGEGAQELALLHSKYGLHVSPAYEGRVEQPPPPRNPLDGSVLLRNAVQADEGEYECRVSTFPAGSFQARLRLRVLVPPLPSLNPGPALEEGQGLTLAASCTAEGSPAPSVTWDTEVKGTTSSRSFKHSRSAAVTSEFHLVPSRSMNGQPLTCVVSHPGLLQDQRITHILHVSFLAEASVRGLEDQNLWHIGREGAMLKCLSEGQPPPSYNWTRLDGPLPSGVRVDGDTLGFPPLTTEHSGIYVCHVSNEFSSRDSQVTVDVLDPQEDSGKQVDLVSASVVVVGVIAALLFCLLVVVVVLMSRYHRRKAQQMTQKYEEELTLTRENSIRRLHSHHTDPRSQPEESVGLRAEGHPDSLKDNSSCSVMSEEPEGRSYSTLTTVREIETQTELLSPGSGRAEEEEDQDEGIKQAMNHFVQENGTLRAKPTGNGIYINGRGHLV
The experiment in a line: cell-based or functional assay.

The target of experiment [2] is T1, full-length human Nectin-4 on cells. Description: flow cytometry, CHO-Nectin-4 cells. As for the experimental part:
(§1) The binding specificity of the disclosed anti-Nectin-4 antibodies was also assessed by FACS. Briefly, CHO-Nectin-4 cells (vs. parental CHO cells) or endogenous cell lines expressing Nectin-4 (T-47D) were incubated with dilutions of purified recombinant antibodies. Cells were washed, and specific antibody binding was detected with Alexa 647 labeled goat anti-mouse IgG antibody. Flow cytometric analysis was performed on a flow cytometry instrument (Intellicyte, IQue plus, Sartorius).
(§2) N4_mAb 1 to N4_mAb 8 antibodies bind to CHO-Nectin-4 cells and SKBR3 cells by FACS.

Experiment [3] has the same target. The experiment in a line: flow cytometry, SKBR3 cells (endogenous Nectin-4). The method, then: as §1, §2
A general note: Flow cytometry measures light scatter and fluorescence of single cells or particles in a stream.

Experiment [4] deals with T2, cynomolgus monkey Nectin-4 (cynomolgus monkey, UniProt Q96NY8 32-510 (human entry)).
T2 construct: Transiently expressed on 293T cells; also called Cyno Nectin-4
T2 chain: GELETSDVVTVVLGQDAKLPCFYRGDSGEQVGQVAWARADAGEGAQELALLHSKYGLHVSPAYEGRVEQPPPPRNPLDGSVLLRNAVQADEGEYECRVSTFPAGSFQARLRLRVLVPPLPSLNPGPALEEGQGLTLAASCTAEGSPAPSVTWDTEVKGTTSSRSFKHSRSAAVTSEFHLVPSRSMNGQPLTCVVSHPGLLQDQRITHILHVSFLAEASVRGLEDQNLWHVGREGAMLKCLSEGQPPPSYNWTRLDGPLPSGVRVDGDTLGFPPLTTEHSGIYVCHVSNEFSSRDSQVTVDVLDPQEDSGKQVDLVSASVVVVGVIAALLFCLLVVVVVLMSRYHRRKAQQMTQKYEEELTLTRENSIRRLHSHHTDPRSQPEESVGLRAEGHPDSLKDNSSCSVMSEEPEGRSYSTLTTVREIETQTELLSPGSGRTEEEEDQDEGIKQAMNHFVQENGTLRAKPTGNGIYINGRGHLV
The experiment in a line: flow cytometry, transfected 293T cells; +++ EC50 less than 5 nM. As for the experimental part: CDNAs encoding Nectin-4 protein from cynomolgus monkey (SEQ ID NO: 62), rat (SEQ ID NO: 63), or mouse (SEQ ID NO: 64) were separately cloned into a pcDNA3.1-based mammalian expression plasmid. The respective plasmids were transfected to human 293T cells in a similar way described in Example 6. The binding EC50 of disclosed human Nectin-4 antibodies to species-specific Nectin-4 transiently expressed on 293T cell surface was measured by flow cytometry.

The target in experiment [5] is T3, recombinant human Nectin4-His protein (human, UniProt Q96NY8 32-349).
T3 construct: Analyte of the SPR assay; May be the same protein as m12; also called human Nectin-4 ECD; not shown: His tag
T3 sequence: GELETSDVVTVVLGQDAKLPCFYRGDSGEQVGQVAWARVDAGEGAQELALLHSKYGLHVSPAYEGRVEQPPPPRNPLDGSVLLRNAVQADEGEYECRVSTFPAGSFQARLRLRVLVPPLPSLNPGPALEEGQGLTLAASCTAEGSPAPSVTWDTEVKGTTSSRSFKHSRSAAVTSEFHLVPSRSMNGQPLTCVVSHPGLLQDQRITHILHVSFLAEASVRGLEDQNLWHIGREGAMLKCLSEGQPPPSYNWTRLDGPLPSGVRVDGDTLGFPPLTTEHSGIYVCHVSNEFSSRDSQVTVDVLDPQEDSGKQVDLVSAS
Description: SPR (BIAcore 3000), antibody captured by anti-human IgG, Nectin4-His as analyte. As for the experimental part: The binding kinetics of the disclosed anti-Nectin-4-specific antibodies to recombinant human Nectin-4 was determined by Surface plasmon resonance (SPR) using BIAcore 3000 system. Briefly, CM5 chip was immobilized via amine coupling chemistry with anti-human IgG antibody (GE, Cat No BR-1000-12, lot 10283568) following the application wizards on Flow cell 4. Flow cell 3 remained unmodified to serve as a reference cell for subtraction of systematic instrument noise and drift. Run Fc4-3 detection with double blank (Fc3 and blank analyte buffer). Antibody samples were diluted to 1 ug/mL in HBS-EP and injected at a flow rate of 10 ul/min for 1 minute. Analyte recombinant human Nectin4-His protein was diluted from 10 to 0.156 nM ([…], 5 points to 0 nM in HBS-EP buffer) and injected at 50 uL/minute for 2 minutes, followed by 6 minutes dissociation. All the analyses were performed with double blanks, Fc3 and blank analyte buffer, to reduce the background. Data were analyzed using BIAevaluation software (version 4.1.1) by 1:1 binding with mass transfer model with global fit to determine apparent binding kinetics.
(In SPR one partner is held on a chip, and binding of the other changes the refractive index at the surface.)

The target in experiment [6] is T1, full-length human Nectin-4 on cells. The experiment in a line: flow cytometry competition on CHO-Nectin-4 cells; competitor biotinylated human Nectin-1-His. The method, then:
The ability of disclosed Nectin4-specific antibodies to block Nectin-1 binding to Nectin-4 expressing cells (CHO cells transfected with human Nectin-4) was determined by FACS. Briefly, CHO-Nectin-4 cells were incubated with dilutions of the disclosed Nectin-4 purified recombinant antibodies. Then, biotinylated human Nectin-1 with His tag (ACROBiosystems, catalog number: PV1-H5223, lot: 733-38GS1-47, 0.75 ug/ml) was added to the plate. After 30-minute incubation, cells were washed, followed by adding Streptavidin Alexa 647 (1:1000) to the samples. After a 30 minute incubation, the samples were analyzed on a flow cytometry instrument (Intellicyte, IQue plus, Sartorius) for Nectin-1 blocking activity. The positive control antibody used in this blocking assay is a reference antibody (known to be a recombinant Nectin-4 specific antibody, made by Novarock Biotherapeutics, lot: 03042020KD).

B1: N4_mAb 1 (antibody, human IgG1, V domains shown)
VH: QVQLKQSGPGLVQPSQSLSITCTVSGFSLTNYGVNWVRQPPGKGLEWLGVIWSGGSTDYNAAFISRLSISKDISKSQVFFKMNSLQADDTAKYYCAREGYDGYAMDYWGQGTSVTVSS
VL: DIQMTQSPASLSVSVGETVTITCRASENIFSSLAWYQQKQGKSPQLLVYGATNLADGVPSRFSGSGSGTQYSLKINSLQSEDFGTYWCQHFWGNPWTFGGGTKLEIK
notes: Tested as chimera (murine variable regions, human IgG1/kappa constants); not shown: human IgG1 constant region (Uniprot P01857); human Kappa light chain constant region (UniProt P01834)
By EC50 is commonly meant the concentration at which the effect is half-maximal. By Kd is commonly meant the concentration at which binding is half-saturated. As to B1, in experiment [1], the “Endocytosis EC50 (cell killing with MMAF-conjugated Fab anti-hFc), Nectin-4-CHO cells” value (shortened to “Endocytosis EC50 … Nectin-4-CHO cells”) is 0.36 nM. Also, in experiment [1], the “Endocytosis EC50 (cell killing with MMAF-conjugated Fab anti-hFc), SKBR3 cells” value (shortened to “Endocytosis EC50 … SKBR3 cells”) was 2.14 nM. Besides, the EC50 in experiment [2] is 0.29 nM; in experiment [3], 0.24 nM; in experiment [4], less than 5 nM; in experiment [6], 0.78 nM. Also, the Kd in experiment [5] worked out at 1.25 nM.

B2: N4_mAb 5 (antibody, human IgG1, V domains shown)
VH: EVQLQQSGPDLVKPGASVKISCKASGYSFTGHYMHWVKQSHGKSLEWIGRVNPNNGGSSYNQKFKDKAILTVDKSSTTAYMELRSLTSEDSAVYYCARDPLGGSYGFAYWGQGTLVTVSA
VL: DIVLTQSPASLAVSLGQRATISCRASQSVTTSSYSYMHWYQQKPGQPPKLLIKYASNLESGVPARFSGSGSGTDFTLNIHPVEEEDTATYYCQHSWEIPYTFGGGTKLEMK
notes: Tested as chimera (human IgG1/kappa constants); not shown: human IgG1 constant region (Uniprot P01857); human Kappa light chain constant region (UniProt P01834)
In the case of B2, the “Endocytosis EC50 … Nectin-4-CHO cells” value in experiment [1] amounted to 0.45 nM. Besides, the “Endocytosis EC50 … SKBR3 cells” value in experiment [1] came out at 0.85 nM. Also, the EC50 in experiment [2] is 0.38 nM; in experiment [3] it was 0.52 nM; in experiment [4], less than 5 nM; in experiment [6], 0.5 nM. Moreover, the Kd in experiment [5] was 1.58 nM.

B3: N4_mAb 2 (antibody, human IgG1, V domains shown)
VH: QVQLKQSGPNLVQPSQSLSITCTVSGFSLTTYGAHWVRQSPGKGLEWLGVIWRGGSTDYNAAFMSRLSITKDNSKSQVFFKMNSLQADDTAIYYCAKIGYDGYAMDNWGQGTSVTVSS
VL: DFQVTQSPASLSASVGETVTITCRTSENIHNYLAWYQQKQGKSPQLLVYNAKTLADGVPSRFSGSGSGTQYSLKINSLQPEDFGTYYCQHFWSSPWTFGGGTKLEIK
notes: as for B2
As for B3, the “Endocytosis EC50 … Nectin-4-CHO cells” value in experiment [1] came out at 0.56 nM. Moreover, the “Endocytosis EC50 … SKBR3 cells” value in experiment [1] is 0.74 nM. For the same molecule, the EC50 in experiment [2] is 0.64 nM; in experiment [3], 1.8 nM; in experiment [4] it was less than 5 nM; in experiment [6], 0.64 nM. For the same molecule, the Kd in experiment [5] was 0.884 nM.

B4: N4_mAb 6 (antibody, human IgG1, V domains shown)
VH: QVQLQQSGPELVKPGASVRISCKASGYTFTTYYIHWVKQRPGQGLEWIGWIYPGNVNTKYTENFKDKATLTADKSSSTAYMQLSSLTSEDSAVYFCARGLYYFDFWGQGTTLTVSS
VL: SIVMTQTPKFLLVSAGDRVTITCKASQSVNNDVAWYQQKPGQSPKLLIYYASNRDTGVPDRFTGSGFGTDFTFTISSVQAEDLAVYFCQQDYSSPYTFGGGTKLEIK
notes: as for B1
With B4, the “Endocytosis EC50 … Nectin-4-CHO cells” value in experiment [1] is 0.44 nM. Besides, the “Endocytosis EC50 … SKBR3 cells” value in experiment [1] worked out at 1.78 nM. Moreover, the EC50 is 0.12 nM in experiment [2], 0.04 nM in experiment [3], less than 5 nM in experiment [4] and 0.12 nM in experiment [6]. Besides, the Kd in experiment [5] came out at 0.392 nM.

B5: N4_mAb 7 (antibody, human IgG1, V domains shown)
VH: QVQLQQSGPELVKPGASVKMSCKASGYTFTTYYIHWVKQRPGQGLEWIGWIYPGNAGIKSNEKFKGKTTLTADKSSSTAYMLLSSLTSEDSAIYFCARGVYFFDYWGQGTTLTVSS
VL: SIVMTQTPKFLLVSAGDRVTITCKASQSVNNDVSWFQQKPGQSPKLLIYYASNRYTGVPDRFSGSGYGTDFTFTITTVQAEDLAVYFCQQDYSSPYTFGGGTKLEIK
notes: as for B1
In the case of B5, the “Endocytosis EC50 … Nectin-4-CHO cells” value in experiment [1] was 0.21 nM. Also, the “Endocytosis EC50 … SKBR3 cells” value in experiment [1] was 0.61 nM. Moreover, the EC50 in experiment [2] is 0.18 nM; in experiment [3], 0.05 nM; in experiment [4] it was less than 5 nM; in experiment [6] it was 0.21 nM. For the same molecule, in experiment [5], the Kd came out at 0.39 nM.

B6: N4_mAb 8 (antibody, human IgG1, V domains shown)
VH: QVQLQQSGPVLVKPGASVRISCKASGYTFTSYYIHWVKQRPGQGLEWIGWIYPGNVNTKYNENFRDKATLTADKSSSTSYMQLSSLTSEDSAVYFCARGIYYFDYWGQGTTLTVSS
VL: IIVMTQTPKFLLVSAGDRVTITCKASQSVNNDVAWYQEKPGQSPKLLIYYASNRDTGVPDRFTGSGYGTDFTFTISTVQAEDLAVYFCHQDYSSPFTFGSGTKLEIK
notes: as for B1
In the case of B6, the “Endocytosis EC50 … Nectin-4-CHO cells” value in experiment [1] was 0.43 nM. The “Endocytosis EC50 … SKBR3 cells” value in experiment [1] is 0.99 nM. Moreover, the EC50 in experiment [2] is 0.23 nM; in experiment [3], 0.05 nM; in experiment [4], less than 5 nM; in experiment [6], 0.33 nM. For the same molecule, the Kd in experiment [5] was 0.375 nM.

B7: N4_mAb 4 (antibody, human IgG1, V domains shown)
VH: DVQLQESGPDLVKPSQSLSLTCTVTGYSITSAYNWHWIRQFPGNKLEWMGYIHYSGRTNYNPSLKSRISITRDTSKNQFFLQLNSLTTEDTATYYCARWITTATGWYLDVWGAGTTVTVSS
VL: not shown
notes: as for B2
As to B7, the “Endocytosis EC50 … Nectin-4-CHO cells” value in experiment [1] came to 0.63 nM. In addition, the “Endocytosis EC50 … SKBR3 cells” value in experiment [1] was 1.58 nM. In addition, the EC50 in experiment [2] was 0.57 nM; in experiment [3] it was 1.8 nM; in experiment [4], less than 5 nM. Further, the Kd in experiment [5] was 1.26 nM.
